Experimental data: PMC11931166, “Heterologous expression and characterization of xylose-tolerant GH 43 family β-xylosidase/α-L-arabinofuranosidase from Limosilactobacillus fermentum and its application in xylan degradation” (Frontiers in Bioengineering and Biotechnology, 2025)

Assays:
[1] = target: T1, LfXyl43 (GH 43 β-xylosidase/α-L-arabinofuranosidase) (Limosilactobacillus fermentum, UniProt A0ABF7R1E2); assay: specific activity of purified enzyme at […] substrate; format: biochemical
T1 construct: gene LAF_0405; recombinant rLfXyl43, 551 residues, C-terminal 6× histidine tag
T1 sequence (A0ABF7R1E2 1-551): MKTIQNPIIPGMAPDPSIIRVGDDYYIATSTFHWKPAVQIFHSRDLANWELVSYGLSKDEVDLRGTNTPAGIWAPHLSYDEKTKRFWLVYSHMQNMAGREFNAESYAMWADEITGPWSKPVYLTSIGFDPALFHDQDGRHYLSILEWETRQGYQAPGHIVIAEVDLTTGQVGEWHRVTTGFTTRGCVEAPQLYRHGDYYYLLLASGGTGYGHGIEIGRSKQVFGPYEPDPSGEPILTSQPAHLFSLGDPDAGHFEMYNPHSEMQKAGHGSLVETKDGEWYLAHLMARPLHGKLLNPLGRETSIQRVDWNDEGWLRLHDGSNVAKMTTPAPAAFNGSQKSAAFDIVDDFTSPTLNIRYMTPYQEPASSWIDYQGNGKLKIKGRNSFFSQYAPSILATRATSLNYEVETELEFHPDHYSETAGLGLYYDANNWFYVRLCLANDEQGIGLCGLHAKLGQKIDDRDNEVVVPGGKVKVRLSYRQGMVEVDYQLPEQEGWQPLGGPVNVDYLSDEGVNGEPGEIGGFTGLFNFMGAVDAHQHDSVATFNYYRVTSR

[2] = substrate: OC1OC[C@@H](O[C@@H]2OC[C@@H](O)[C@H](O)[C@H]2O)[C@H](O)[C@H]1O; assay: Michaelis-Menten kinetics, DNSA reducing sugar assay (Km); format: biochemical, Limosilactobacillus fermentum; details: catalytic pocket, subsites −[…] and +[…] (predicted)
[3] = substrate: OC1OC[C@@H](O[C@@H]2OC[C@@H](O[C@@H]3OC[C@@H](O)[C@H](O)[C@H]3O)[C@H](O)[C@H]2O)[C@H](O)[C@H]1O; assay: as above; format: biochemical, Limosilactobacillus fermentum
[4] = substrate: OC1OC[C@@H](O[C@@H]2OC[C@@H](O[C@@H]3OC[C@@H](O[C@@H]4OC[C@@H](O)[C@H](O)[C@H]4O)[C@H](O)[C@H]3O)[C@H](O)[C@H]2O)[C@H](O)[C@H]1O; assay: as above; format: biochemical, Limosilactobacillus fermentum; details: catalytic pocket, Asp15 and Glu188 at the −[…] subsite (predicted)
purified protein [5] = substrate: O=[N+]([O-])c1ccc(O[C@@H]2OC[C@@H](O)[C@H](O)[C@H]2O)cc1; assay: purified protein; format: biochemical, Limosilactobacillus fermentum; details: catalytic pocket, Asp15, Asp129 and Glu188 (predicted)
purified protein [6] = substrate: O=[N+]([O-])c1ccc(O[C@@H]2O[C@@H](CO)[C@H](O)[C@H]2O)cc1; assay: purified protein; format: biochemical, Limosilactobacillus fermentum

| Molecule | Specific activity, U/mg [1] [U/mg] | Km [2] [mM] | Vmax [2] [µmol/min/mg] | kcat [2] [s⁻¹] | kcat/Km [2] [M⁻¹ s⁻¹] | Km [3] [mM] | Vmax [3] [µmol/min/mg] | kcat [3] [s⁻¹] | kcat/Km [3] [M⁻¹ s⁻¹] | Km [4] [mM] | Vmax [4] [µmol/min/mg] | kcat [4] [s⁻¹] | kcat/Km [4] [M⁻¹ s⁻¹] | Km (purified protein [5]) [mM] | Vmax (purified protein [5]) [µmol/min/mg] | kcat (purified protein [5]) [s⁻¹] | Km (purified protein [6]) [mM] | Vmax (purified protein [6]) [µmol/min/mg] | kcat (purified protein [6]) [s⁻¹] | kcat/Km (purified protein [6]) [M⁻¹ s⁻¹] |
| --- | --- | --- | --- | --- | --- | --- | --- | --- | --- | --- | --- | --- | --- | --- | --- | --- | --- | --- | --- | --- |
| O=[N+]([O-])c1ccccc1O[C@@H]1OC[C@@H](O)[C@H](O)[C@H]1O [oNPX, o-nitrophenyl-β-D-xylopyranoside] | 3.8 ± 0.1 |  |  |  |  |  |  |  |  |  |  |  |  |  |  |  |  |  |  |  |
| LfXyl43 (GH 43 β-xylosidase/α-L-arabinofuranosidase) (Limosilactobacillus fermentum IFO 3956) (protein, recombinant rLfXyl43, 551 residues, C-terminal 6× histidine tag) MKTIQNPIIPGMAPDPSIIRVGDDYYIATSTFHWKPAVQIFHSRDLANWELVSYGLSKDEVDLRGTNTPAGIWAPHLSYDEKTKRFWLVYSHMQNMAGREFNAESYAMWADEITGPWSKPVYLTSIGFDPALFHDQDGRHYLSILEWETRQGYQAPGHIVIAEVDLTTGQVGEWHRVTTGFTTRGCVEAPQLYRHGDYYYLLLASGGTGYGHGIEIGRSKQVFGPYEPDPSGEPILTSQPAHLFSLGDPDAGHFEMYNPHSEMQKAGHGSLVETKDGEWYLAHLMARPLHGKLLNPLGRETSIQRVDWNDEGWLRLHDGSNVAKMTTPAPAAFNGSQKSAAFDIVDDFTSPTLNIRYMTPYQEPASSWIDYQGNGKLKIKGRNSFFSQYAPSILATRATSLNYEVETELEFHPDHYSETAGLGLYYDANNWFYVRLCLANDEQGIGLCGLHAKLGQKIDDRDNEVVVPGGKVKVRLSYRQGMVEVDYQLPEQEGWQPLGGPVNVDYLSDEGVNGEPGEIGGFTGLFNFMGAVDAHQHDSVATFNYYRVTSR |  | 134.7 | 241 | 1740 | 12900 | 120.2 | 441 | 3170 | 26400 | 84.2 | 488 | 3530 | 41900 | 2.0 | 19.7 | 142 | 1.5 | 0.4 | 2.8 | 1900 |
